Measured values taken from the Human Domainome abundance scans (Beltran et al. 2025).
± gives the uncertainty stated by the source.

B1: Cytoplasmic polyadenylation element-binding protein 2, residues 513 to 575; numbered along this chain, Q7Z5Q1 (parent)
chain: KRVEVKPYVLDDQMCDECQGARCGGKFAPFFCANVTCLQYYCEFCWANIHSRAGREFHKPLVK

Variants of: B1
Test: abundance fitness (aPCA) (normalised: wild type 0, dead -1); higher = more abundant; growth selection in yeast, the domain comes from the species named
Conditions: Homo sapiens

| Variant | abundance fitness |
| --- | --- |
| V35P | 0.116 ± 0.053 |
| V35G | 0.058 ± 0.041 |
| V35I | -0.088 ± 0.064 |
| V35H | -0.037 ± 0.082 |
| V35R | 0.077 ± 0.039 |
| V35A | 0.039 ± 0.048 |
| P60V | -0.331 ± 0.049 |
| P60N | -0.057 ± 0.12 |
| P60E | -0.412 ± 0.072 |
| Q13R | 0.003 ± 0.04 |
| Q13N | -0.131 ± 0.086 |
| Q13S | -0.144 ± 0.041 |
| Q13E | -0.358 ± 0.062 |
| Q13M | -0.056 ± 0.049 |
| Q13V | -0.083 ± 0.047 |
| Q13I | -0.197 ± 0.096 |
| Q13A | -0.017 ± 0.048 |
| Q13G | -0.378 ± 0.05 |
| A53K | 0.142 ± 0.051 |
| A53Y | -0.098 ± 0.064 |
| A53Q | 0.106 ± 0.058 |
| A53F | -0.045 ± 0.056 |
| A53E | 0.082 ± 0.055 |
| C37Q | -1.02 ± 0.13 |

| Variant | abundance fitness |
| --- | --- |
| C37P | -0.496 ± 0.064 |
| C37D | -0.766 ± 0.1 |
| C18L | -0.966 ± 0.069 |
| C18S | -0.764 ± 0.057 |
| C18Y | -0.966 ± 0.15 |
| C18K | -0.677 ± 0.077 |
| E17Q | 0.09 ± 0.059 |
| E17P | -0.366 ± 0.054 |
| E17F | -0.458 ± 0.085 |
| E17R | -0.059 ± 0.035 |
| V9R | -0.14 ± 0.04 |
| V9Y | -0.212 ± 0.07 |
| V9N | 0.007 ± 0.12 |
| V9L | -0.043 ± 0.04 |
| V9S | 0.058 ± 0.039 |
| L10M | 0.037 ± 0.056 |
| L10N | 0.005 ± 0.13 |
| L10Y | -0.193 ± 0.12 |
| V62A | -0.193 ± 0.47 |
| V62M | 0.081 ± 0.22 |
| V62R | 0.105 ± 0.42 |
| M14K | 0.064 ± 0.057 |
| M14R | -0.154 ± 0.059 |
| M14I | -0.082 ± 0.12 |

| Variant | abundance fitness |
| --- | --- |
| M14G | -0.187 ± 0.054 |
| M14H | -0.33 ± 0.16 |
| C45Q | -0.994 ± 0.14 |
| C45V | -1.32 ± 0.1 |
| C45T | -1.01 ± 0.099 |
| C45F | -1.2 ± 0.17 |
| C45M | -1.24 ± 0.14 |
| Y41R | -0.804 ± 0.067 |
| Y41M | -0.053 ± 0.056 |
| Y41A | -0.676 ± 0.072 |
| Y41P | -0.734 ± 0.082 |
| Y41V | -0.531 ± 0.042 |
| Y41T | -0.329 ± 0.088 |
| A21L | -0.203 ± 0.04 |
| A21R | -0.033 ± 0.034 |
| A21Y | -0.32 ± 0.095 |
| A21Q | -0.141 ± 0.073 |
| A21S | -0.018 ± 0.04 |
| A21N | -0.037 ± 0.08 |
| A21M | -0.22 ± 0.081 |
| P7F | -0.413 ± 0.18 |
| P7H | -0.086 ± 0.072 |
| P7V | -0.735 ± 0.083 |
| P7E | 0.051 ± 0.059 |

| Variant | abundance fitness |
| --- | --- |
| L61E | 0.146 ± 0.051 |
| L61G | 0.076 ± 0.042 |
| L61V | 0.091 ± 0.041 |
| L61M | 0.012 ± 0.056 |
| L61Q | 0.116 ± 0.057 |
| L61R | -0.014 ± 0.042 |
| L61C | 0.091 ± 0.059 |
| L61Y | -0.197 ± 0.081 |
| F30P | -0.621 ± 0.092 |
| F30Q | 0.016 ± 0.063 |
| F30N | -0.081 ± 0.13 |
| L38H | 0.029 ± 0.098 |
| L38F | -0.076 ± 0.072 |
| L38I | -0.115 ± 0.072 |
| E56C | -0.195 ± 0.056 |
| E56Y | -0.271 ± 0.091 |
| E56W | -0.573 ± 0.057 |
| E56K | 0.035 ± 0.066 |
| E56D | -0.035 ± 0.081 |
| E56L | -0.253 ± 0.043 |
| E56F | -0.235 ± 0.057 |
| N48A | -0.001 ± 0.046 |
| N48P | -0.141 ± 0.054 |
| N48H | 0.049 ± 0.047 |

| Variant | abundance fitness |
| --- | --- |
| T36C | -0.201 ± 0.12 |
| T36Q | -0.058 ± 0.052 |
| T36D | 0.108 ± 0.077 |
| T36R | -0.151 ± 0.042 |
| T36F | -0.312 ± 0.11 |
| T36G | 0.073 ± 0.036 |
| T36M | -0.095 ± 0.062 |
| T36A | 0.007 ± 0.045 |
| K26A | -0.016 ± 0.045 |
| K26Q | -0.132 ± 0.058 |
| K26S | -0.079 ± 0.047 |
| H50K | -0.673 ± 0.082 |
| H50R | -0.775 ± 0.064 |
| H50A | -0.674 ± 0.07 |
| H50L | -0.965 ± 0.069 |
| H50T | -0.742 ± 0.093 |
| H50F | -0.904 ± 0.11 |
| S51Q | 0.102 ± 0.06 |
| S51M | 0.029 ± 0.051 |
| S51N | 0.091 ± 0.079 |
| S51D | 0.174 ± 0.056 |
| S51R | 0.116 ± 0.035 |
| S51T | 0.006 ± 0.063 |
| F44M | -0.145 ± 0.057 |

| Variant | abundance fitness |
| --- | --- |
| F44P | 0.082 ± 0.048 |
| F44R | -0.038 ± 0.032 |
| F44A | 0.05 ± 0.043 |
| F44Q | 0.124 ± 0.061 |
| F44T | 0.003 ± 0.048 |
| I49Q | -0.132 ± 0.067 |
| I49D | -0.186 ± 0.07 |
| I49R | -0.006 ± 0.058 |
| C23A | -0.154 ± 0.066 |
| C23R | -0.185 ± 0.035 |
| C23E | -0.153 ± 0.068 |
| C23N | -0.121 ± 0.075 |
| C23P | -0.229 ± 0.058 |
| C23G | -0.056 ± 0.042 |
| V5W | -0.247 ± 0.052 |
| V5R | 0.005 ± 0.041 |
| V5A | -0.088 ± 0.052 |
| V5Y | -0.141 ± 0.055 |
| V5N | 0.048 ± 0.086 |
| F31P | -0.588 ± 0.069 |
| F31Q | -0.425 ± 0.072 |
| F31A | -0.644 ± 0.081 |
| F31T | -0.57 ± 0.075 |
| F31S | -0.591 ± 0.053 |

| Variant | abundance fitness |
| --- | --- |
| K59Y | -0.351 ± 0.092 |
| K59H | -0.226 ± 0.072 |
| K59E | 0.168 ± 0.055 |
| K59L | -0.219 ± 0.05 |
| K59F | -0.541 ± 0.089 |
| K59S | 0.021 ± 0.04 |
| K59N | -0.248 ± 0.075 |
| K59W | -0.46 ± 0.047 |
| K59T | -0.041 ± 0.059 |
| K59G | -0.255 ± 0.045 |
| P29K | -0.065 ± 0.047 |
| P29G | -0.03 ± 0.041 |
| P29E | -0.108 ± 0.061 |
| P29S | 0.009 ± 0.038 |
| P29I | -0.282 ± 0.073 |
| P29A | 0.009 ± 0.056 |
| R55I | 0.104 ± 0.1 |
| R55N | -0.019 ± 0.079 |
| R55T | -0.165 ± 0.055 |
| R55S | -0.041 ± 0.037 |
| R55G | -0.176 ± 0.055 |
| R55H | -0.131 ± 0.087 |
| R55D | -0.08 ± 0.06 |
